In PMC5436001 one finds stoichiometry N data, which are given here for one substance.

For this assay, the target named is mMyrf N-terminal fragment (from N-terminally tagged wild-type mouse Myrf) (mouse). Description: co-IP.

As a reminder, the stoichiometry N is a count of units in the complex or per binding partner.

Substance “mMyrf N-terminal fragment (from N-terminally tagged wild-type mouse Myrf) (domain or fragment)” showed a stoichiometry N of 3.
